Source: publication PMC2649101

Molecular target: GCaMP2 [GFP: P42212]
Assay: SEC

Substance: GCaMP2 (from UniProt P42212 149-238; P42212 1-144)
- percent present as dimer at the concentrations seen in the brain slice (∼10 μM): 5%
- stoichiometry N: 2
